From patent US20090269346A1

Columns and labels:
LRP2 CR89 (human) [1] = target: LRP2 CR89 (human) (UniProt P98164); experiment: phage binding: equal amounts of phage incubated in wells coated with LRP2 CR89, bound phage eluted and titered; in the presence of 50 mM EDTA
LRP2 CR89 (human) [2] = target: LRP2 CR89 (human) (UniProt P98164); experiment: phage binding: equal amounts of phage incubated in wells coated with LRP2 CR89, bound phage eluted and titered; no EDTA

Sequence of LRP2 CR89 (human) (P98164 1025-1102): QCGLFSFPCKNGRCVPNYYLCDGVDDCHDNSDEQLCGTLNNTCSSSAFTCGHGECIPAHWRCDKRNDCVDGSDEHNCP

B1: RAP phage (protein, not shown: large carriers)
chain: YSREKNQPKPSPKRESGEEFRMEKLNQLWEKAQRLHLPPVRLAELHADLKIQERDELAWKKLKLDGLDEDGEKEARLIRNLNVILAKYGLDGKKDARQVTSNSLSGTQEDGLDDPRLEKLWHKAKTSGKFSGEELDKLWREFLHHKEKVHEYNVLLETLSRTEEIHENVISPSDLSDIKGSVLHSRHTELKEKLRSINQGLDRLRRVSHQGYSTEAEFEEPRVIDLWDLAQSANLTDKELEAFREELKHFEAKIEKHNHYQKQLEIAHEKLRHAESVGDGERVSRSREKHALLEGRTKELGYTVKKHLQDLSGRISRARAEAETG
modifications: Displayed on M13 phage as an N-terminal fusion to pIII; pIII letters not given.
cfu recovered (LRP2 CR89 (human) [1]): 146 cfu | cfu recovered (LRP2 CR89 (human) [2]): 520 cfu
